Experimental data: the supplement of paper PMC10724198
± gives the standard deviation of the averaged measurements.

The sequences below were run on Saccharomyces cerevisiae (assay: protein stability index of tFT-peptide fusion (C-terminal peptide) (PSI (0-1 scale)); higher = more stable (slower turnover)). Conditions: genetic background: wild type; temperature: 30 C.
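Also: PSI is a weighted mean of sequencing reads over stability bins, variants kept only with over 10 reads, mCherry proximal and sfGFP distal, peptide attached via GGGS linker.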

VRCCFGGRGGRA and VRCGGRGRAGKG are within error of each other in protein stability index: 0.637 ± 0.035 for the first, 0.634 ± 0.03 for the second.

VRCWEDGFLDSS and VREMMGFWFVPL are within error of each other in protein stability index: 0.7293 ± 0.0042 for the first, 0.691 ± 0.11 for the second.

VRFPCGFCKKLS and VRFYVFSFSNWL are within error of each other in protein stability index: 0.637 ± 0.036 for the first, 0.586 ± 0.031 for the second.

VRGGVSWGMRGG and VRGVGGLWVGAV are within error of each other in protein stability index: 0.634 ± 0.089 for the first, 0.684 ± 0.012 for the second.

VRGVGLVDVVGL and VRIIVVDLGGRR are within error of each other in protein stability index: 0.727 ± 0.12 for the first, 0.684 ± 0.0082 for the second.

VRKKGKKKKKDK and VRKKRKKELAKV are within error of each other in protein stability index: 0.678 ± 0.031 for the first, 0.794 ± 0.086 for the second.

VRQSQIKHVVVQ and VRRLSASSDGKI are within error of each other in protein stability index: 0.627 ± 0.019 for the first, 0.761 ± 0.14 for the second.

VRRWGKWSIVGW and VRSILEGRRGEK are within error of each other in protein stability index: 0.736 ± 0.03 for the first, 0.709 ± 0.032 for the second.

VRSTPLKEMMRH and VRVRSLEGWGMG are within error of each other in protein stability index: 0.681 ± 0.0092 for the first, 0.6687 ± 0.0048 for the second.

VRVSSSDILICL and VRWSRFCLAFPV are within error of each other in protein stability index: 0.675 ± 0.079 for the first, 0.605 ± 0.04 for the second.

VSDTRELSSDQI and VSFGFHKWCHSR are within error of each other in protein stability index: 0.656 ± 0.02 for the first, 0.638 ± 0.015 for the second.

VSGGRQVGGGGW and VSGGRQVGWGGW are within error of each other in protein stability index: 0.72 ± 0.088 for the first, 0.686 ± 0.011 for the second.

First: VSGICCRGVLLL
Second: VSGLGAHEPDKL
The protein stability index of the first is lower: 0.6268 ± 0.00045 for the first, 0.667 ± 0.0072 for the second.

VSGSTGVWCRWG and VSGVREGCSEME are within error of each other in protein stability index: 0.668 ± 0.048 for the first, 0.773 ± 0.11 for the second.

VSLGHGYVFRRV and VSMPVGWRSWGG are within error of each other in protein stability index: 0.6921 ± 0.0058 for the first, 0.694 ± 0.013 for the second.

VSPTRSRPSSPA and VSRLTVIPAVQT are within error of each other in protein stability index: 0.692 ± 0.055 for the first, 0.652 ± 0.027 for the second.

Going from VSRRCVALRVGN to VSRVDGAGHSAV, the protein stability index rises from 0.579 ± 0.017 to 0.66 ± 0.0088.

VSSAGAQHQVTH and VSSRWGGWWNGV are within error of each other in protein stability index: 0.667 ± 0.025 for the first, 0.655 ± 0.046 for the second.

VSSVEHCLGHCR and VSVFNFPSLFVG are within error of each other in protein stability index: 0.738 ± 0.11 for the first, 0.66 ± 0.063 for the second.

Compared with VSVGVCGYKVWG, VSVILAGLFWIT is lower in protein stability index: 0.709 ± 0.1 for the first, 0.473 ± 0.038 for the second.

VSVLCADGVLRM and VSVLCGSRLAFE are within error of each other in protein stability index: 0.725 ± 0.028 for the first, 0.685 ± 0.04 for the second.

VSVRLAINRKEW and VSWVMSEMRKGE are within error of each other in protein stability index: 0.6738 ± 0.00093 for the first, 0.697 ± 0.031 for the second.

VSWVWMGRLGYC and VTCALGIGGVGV are within error of each other in protein stability index: 0.657 ± 0.02 for the first, 0.716 ± 0.05 for the second.

VTFRCHHSRQVM and VTGCAVLSGAGE are within error of each other in protein stability index: 0.725 ± 0.14 for the first, 0.675 ± 0.051 for the second.

VTGSHARFSVPE and VTHDSACSSRLA are within error of each other in protein stability index: 0.658 ± 0.013 for the first, 0.683 ± 0.019 for the second.

VTHREFAGSALG and VTLSYDTKWLWL are within error of each other in protein stability index: 0.698 ± 0.022 for the first, 0.665 ± 0.07 for the second.

VTPLPPPRTFLP and VTPPTPPSRASP are within error of each other in protein stability index: 0.67 ± 0.07 for the first, 0.667 ± 0.02 for the second.

Compared with VTPVPFRTMMST, VTREEVSAGRGR is higher in protein stability index: 0.571 for the first, 0.657 ± 0.058 for the second.

First: VTRLTGKLVAEK
Second: VTSSLHAVPWSR
The protein stability index of the first is lower: 0.576 ± 0.027 for the first, 0.693 ± 0.0088 for the second.

First: VTTDLALCGSVC
Second: VTTPHPPAPPPP
The protein stability index of the first is lower: 0.624 ± 0.016 for the first, 0.765 ± 0.02 for the second.

Compared with VTTQELRCRPEG, VTVCQTRGADSV is lower in protein stability index: 0.636 ± 0.019 for the first, 0.579 ± 0.01 for the second.

Going from VVAGGERMRTGV to VVCLGLPIQAGV, the protein stability index falls from 0.671 ± 0.022 to 0.526 ± 0.017.

First: VVCVGGVELLVL
Second: VVCVGSEVGEGG
The protein stability index of the first is lower: 0.532 ± 0.019 for the first, 0.7243 ± 0.0045 for the second.

VVFEVFLTHMSM and VVFFSSPHFVRA are within error of each other in protein stability index: 0.624 ± 0.065 for the first, 0.609 ± 0.05 for the second.

Compared with VVGAVVLRRGGP, VVGFVPVWRAGS is lower in protein stability index: 0.67 ± 0.012 for the first, 0.593 ± 0.031 for the second.

Compared with VVGSVFGGVRAA, VVGVAVSRTFAR is lower in protein stability index: 0.708 ± 0.032 for the first, 0.618 ± 0.039 for the second.

VVIFPPTFISGG and VVIRVKDEPFIM are within error of each other in protein stability index: 0.643 ± 0.1 for the first, 0.6781 ± 0.0067 for the second.

Compared with VVKFLALIPLSP, VVLLGAVGLVER is higher in protein stability index: 0.583 ± 0.01 for the first, 0.679 ± 0.029 for the second.

Going from VVLRSTFFGSLL to VVLSCGIPGCVF, the protein stability index falls from 0.699 ± 0.0089 to 0.572 ± 0.028.

VVLSRSLTDLVR and VVLTGPGYCLTL are within error of each other in protein stability index: 0.677 ± 0.077 for the first, 0.763 ± 0.047 for the second.

In the case of VVNVVGRVVPKG, the protein stability index is reported as 0.7396 ± 0.006.
